T1: human interleukin 13 receptor subunit alpha 2 (IL-13RA2) (human, UniProt Q14627 27-380)
T1 construct: whole, on cells; also called IL-13Rα2; CD213A2
T1 sequence (looked up): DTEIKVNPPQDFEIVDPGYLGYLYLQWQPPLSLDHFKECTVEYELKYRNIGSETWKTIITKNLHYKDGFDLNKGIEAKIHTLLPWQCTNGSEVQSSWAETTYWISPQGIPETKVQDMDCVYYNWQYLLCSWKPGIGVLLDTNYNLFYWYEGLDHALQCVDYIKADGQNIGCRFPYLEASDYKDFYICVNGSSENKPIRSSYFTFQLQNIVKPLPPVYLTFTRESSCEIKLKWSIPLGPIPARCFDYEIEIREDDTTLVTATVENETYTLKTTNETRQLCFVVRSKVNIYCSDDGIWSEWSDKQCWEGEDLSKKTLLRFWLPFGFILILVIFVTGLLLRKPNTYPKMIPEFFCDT

B1: 57F8H3F1 H1L2 hIgG1 (antibody, V domains shown)
VH: QVQLVQSGAEVKKPGASVKVSCKASGYTFTNYWMNWVRQAPGQGLEWMGRIDAYETETHYNQKFRDRVTMTRDTSTSTVYMELSSLRSEDTAVYYCARGYGHYYGVDYWGQGTLVTVSS
VL: DIQMTQSPSSLSASVGDRVTITCRASENVGNFGISFVNWFQQKPGKAPKLLIYAASNLGSGDPSRFSGSGSGTDFTLTISSLQPEDFATYFCQQSKGVPWTFGQGTKVEIK
notes: humanized, hIgG1
B2: 57F8H3F1 H4L4 hIgG1 (antibody, V domains shown)
VH: QVQLVQSGAEVVKPGASVKLSCKASGYTFTNYWMNWVKQRPGQGLEWIGRIDAYETETHYNQKFRDRAILTVDKSTSTAYMELRSLRSEDTAVYYCARGYGHYYGVDYWGQGTLVTVSS
VL: B1 VL with Q3V, M4L, V19A, A47P, S64A, Q104G, V108L
notes: humanized, hIgG1
B3: 72B4H4 H2L2 hIgG1 (antibody, V domains shown)
VH: B1 VH with K12V, M48I, E55A, T56G, R65K, R72V, H102D, Y103A, V106M, Y108H
VL: B1 VL with N28S, G30D, F32Y, V37M, N57R, L58Q, G97E
notes: humanized, hIgG1
B4: 57F8H3F1 H3L4 hIgG1 (antibody, V domains shown)
VH: B2 VH with R40A, I69T, A79V, R84S
VL: B1 VL with Q3V, M4L, V19A, A47P, S64A, Q104G, V108L
notes: humanized, hIgG1
B5: 57F8H3F1 H3L3 hIgG1 (antibody, V domains shown)
VH: B2 VH with R40A, I69T, A79V, R84S
VL: B1 VL with M4L, S64A, Q104G
notes: humanized, hIgG1
B6: 72B4H4 H2L4 hIgG1 (antibody, V domains shown)
VH: B1 VH with K12V, M48I, E55A, T56G, R65K, R72V, H102D, Y103A, V106M, Y108H
VL: DIVLTQSPSSLSASVGDRATITCRASESVDNYGISFMNWFQQKPGKPPKLLIYAASRQGSGDPARFSGSGSGTDFTLTISSLQPEDFATYFCQQSKEVPWTFGGGTKLEIK
notes: humanized, hIgG1
B7: 57F8H3F1 H4L1 hIgG1 (antibody, V domains shown)
VH: B2 VH
VL: B1 VL with F40Y, D62V, F91Y
notes: humanized, hIgG1
B8: 57F8H3F1 H2L1 hIgG1 (antibody, V domains shown)
VH: B1 VH with K12V, M48I, R72V
VL: B1 VL with F40Y, D62V, F91Y
notes: humanized, hIgG1
B9: 72B4H4 H2L3 hIgG1 (antibody, V domains shown)
VH: B1 VH with K12V, M48I, E55A, T56G, R65K, R72V, H102D, Y103A, V106M, Y108H
VL: B6 VL with V3Q, A19V, P47A, L108V
notes: humanized, hIgG1
B10: 72B4H4 H1L2 hIgG1 (antibody, V domains shown)
VH: B1 VH with E55A, T56G, R65K, H102D, Y103A, V106M, Y108H
VL: B1 VL with N28S, G30D, F32Y, V37M, N57R, L58Q, G97E
notes: humanized, hIgG1
B11: 72B4H4 H3L2 hIgG1 (antibody, V domains shown)
VH: QVQLVQSGAEVVKPGASVKLSCKASGYTFTNYWMNWVKQAPGQGLEWIGRIDAYAGETHYNQKFKDRATLTVDKSTSTVYMELSSLRSEDTAVYYCARGYGDAYGMDHWGQGTLVTVSS
VL: B1 VL with N28S, G30D, F32Y, V37M, N57R, L58Q, G97E
notes: humanized, hIgG1
B12: 72B4H4 H1L3 hIgG1 (antibody, V domains shown)
VH: B1 VH with E55A, T56G, R65K, H102D, Y103A, V106M, Y108H
VL: B6 VL with V3Q, A19V, P47A, L108V
notes: humanized, hIgG1
B13: 57F8H3F1 H3L1 hIgG1 (antibody, V domains shown)
VH: B2 VH with R40A, I69T, A79V, R84S
VL: B1 VL with F40Y, D62V, F91Y
notes: humanized, hIgG1
B14: 72B4H4 H2L1 hIgG1 (antibody, V domains shown)
VH: B11 VH with L20V, K38R, A68V, L70M, K74T
VL: B1 VL with N28S, G30D, F32Y, V37M, F40Y, N57R, L58Q, D62V, F91Y, G97E
notes: humanized, hIgG1
B15: 57F8H3F1 H4L2 hIgG1 (antibody, V domains shown)
VH: B2 VH
VL: B1 VL
notes: humanized, hIgG1
B16: 72B4H4 H3L4 hIgG1 (antibody, V domains shown)
VH: B11 VH
VL: B6 VL
notes: humanized, hIgG1
B17: 57F8H3F1 H2L4 hIgG1 (antibody, V domains shown)
VH: B1 VH with K12V, M48I, R72V
VL: B1 VL with Q3V, M4L, V19A, A47P, S64A, Q104G, V108L
notes: humanized, hIgG1
B18: 57F8H3F1 H1L3 hIgG1 (antibody, V domains shown)
VH: B1 VH
VL: B1 VL with M4L, S64A, Q104G
notes: humanized, hIgG1
B19: 72B4H4 H1L1 hIgG1 (antibody, V domains shown)
VH: B1 VH with E55A, T56G, R65K, H102D, Y103A, V106M, Y108H
VL: B1 VL with N28S, G30D, F32Y, V37M, F40Y, N57R, L58Q, D62V, F91Y, G97E
notes: humanized, hIgG1
B20: 57F8H3F1 H1L4 hIgG1 (antibody, V domains shown)
VH: B1 VH
VL: B1 VL with Q3V, M4L, V19A, A47P, S64A, Q104G, V108L
notes: humanized, hIgG1
B21: 57F8H3F1 H2L3 hIgG1 (antibody, V domains shown)
VH: B1 VH with K12V, M48I, R72V
VL: B1 VL with M4L, S64A, Q104G
notes: humanized, hIgG1
B22: 72B4H4 H3L3 hIgG1 (antibody, V domains shown)
VH: B11 VH
VL: B6 VL with V3Q, A19V, P47A, L108V
notes: humanized, hIgG1
B23: 57F8H3F1 H3L2 hIgG1 (antibody, V domains shown)
VH: B2 VH with R40A, I69T, A79V, R84S
VL: B1 VL
notes: humanized, hIgG1
B24: 72B4H4 H1L4 hIgG1 (antibody, V domains shown)
VH: B1 VH with E55A, T56G, R65K, H102D, Y103A, V106M, Y108H
VL: B6 VL
notes: humanized, hIgG1
B25: 72B4H4 H3L1 hIgG1 (antibody, V domains shown)
VH: B11 VH
VL: B1 VL with N28S, G30D, F32Y, V37M, F40Y, N57R, L58Q, D62V, F91Y, G97E
notes: humanized, hIgG1
B26: 57F8H3F1 H4L3 hIgG1 (antibody, V domains shown)
VH: B2 VH
VL: B1 VL with M4L, S64A, Q104G
notes: humanized, hIgG1

This is an account of results in patent publication US20250163164A1 (LANOVA MEDICINES DEVELOPMENT, published 2025).

Changes are numbered by the printed parent chain.

By EC50 is commonly meant the midpoint of the concentration-response curve. High values mean a need for much substance, low ones an effect from little substance.

The target in this assay is T1, human interleukin 13 receptor subunit …. As to the kind of experiment: FACS on A375 cells. On the procedure: A375 cells that endogenously expressed IL-13RA2, were harvested from flasks. 100 μl of 1×10⁶ cells/ml of cells were incubated with primary humanized antibodies in 4-fold serial dilutions starting from 200 nM to 0.003 nM for 30 minutes on ice. After being washed with 200 μl of FACS buffer twice, cells were incubated with secondary antibody for 30 minutes on ice. Cells were washed with 200 μl of FACS buffer twice and analyzed by FACS.
B1: the EC50 worked out at 0.78 nM and the “Top (MFI)” value is 7510 MFI.
With B2, a half-maximal response (EC50) required 0.91 nM and the “Top (MFI)” value stood at 7270 MFI.
The matching figures for B3: 1.48 nM and 8700 MFI.
B4: the EC50 was 1.3 nM and the “Top (MFI)” value came out at 7610 MFI.
As for B5, the response was half-maximal at 1.62 nM (EC50) and the “Top (MFI)” value was 7610 MFI.
Consider B6, for which the EC50 stood at 1.18 nM and the “Top (MFI)” value amounted to 8630 MFI.
For B7 the same measures were 0.42 nM and 7350 MFI.
For the molecule B8, the EC50 was found to be 0.38 nM and the “Top (MFI)” value turned out to be 6910 MFI.
The matching figures for B9: 0.83 nM and 8420 MFI.
The matching figures for B10: 0.81 nM and 8540 MFI.
Regarding B11, the EC50 stood at 1.44 nM and the “Top (MFI)” value worked out at 8550 MFI.
As to B12, a half-maximal response (EC50) required 1 nM and the “Top (MFI)” value was determined as 8900 MFI.
As to B13, the EC50 worked out at 0.71 nM and the “Top (MFI)” value was determined as 8160 MFI.
Consider B14, for which the EC50 worked out at 2.75 nM and the “Top (MFI)” value was found to be 8360 MFI.
Regarding B15, a half-maximal response (EC50) required 0.75 nM and the “Top (MFI)” value was determined as 7340 MFI.
For B16, the EC50 is 1.36 nM and the “Top (MFI)” value was 8770 MFI.
The matching figures for B17: 1.01 nM and 7140 MFI.
For B18 the same measures were 0.81 nM and 7540 MFI.
Turning to B19, the EC50 came out at 0.54 nM and the “Top (MFI)” value came to 8440 MFI.
As for B20, a half-maximal effect (EC50) was put at 0.94 nM and the “Top (MFI)” value was determined as 7820 MFI.
With B21, the EC50 worked out at 0.92 nM and the “Top (MFI)” value is 7010 MFI.
Consider B22, for which the EC50 was found to be 1.66 nM and the “Top (MFI)” value worked out at 8780 MFI.
Consider B23, for which it took 1.25 nM to reach a half-maximal effect (EC50) and the “Top (MFI)” value was 7420 MFI.
As for B24, the EC50 turned out to be 0.98 nM and the “Top (MFI)” value came out at 9040 MFI.
Take B25: the EC50 is 1.14 nM and the “Top (MFI)” value stood at 8830 MFI.
In the case of B26, the EC50 was 0.8 nM and the “Top (MFI)” value came to 7180 MFI.
